Results on two substances are retold here after paper PMC11365436.

In experiment [1] the target is strep-CsoS1A (hexameric shell protein) (Halothiobacillus neapolitanus) (UniProt P45689). Kind of experiment: native gel or EMSA; native 1% agarose protein gel (Tris-acetate-EDTA); proteins mixed in 50 mM Hepes, 150 mM NaCl, 30 min at room temperature; 2.5 μg CsoS1A or BSA, 8.4 μg CsoS2 or 3.5 μg MR variant (0.09 nmol); run 70 min at 60 V in 25 mM Tris, 200 mM glycine, pH 7.5; stained, quantified in FIJI.

For experiment [2] the target is unchanged.

Chain of UniProt P45689 (P45689 whole entry): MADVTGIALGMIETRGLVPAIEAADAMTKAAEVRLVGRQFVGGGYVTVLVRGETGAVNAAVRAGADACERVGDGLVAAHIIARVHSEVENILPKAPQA

With “6xHis-wtMR-strep (WT middle region of CsoS2, repeats 1 to 6) (domain or fragment)”, the percent less mobility shift of shell than with full-length CsoS2 in experiment [1] came out at 25%. As for “6xHis-CsoS2B (full-length CsoS2, long form) (from UniProt O85041-1 1-869) (natural protein)”, in experiment [1], the percent of shell bound and shifted from its control position was above 90%. In addition, in experiment [2], the turbidity with 9 μM CsoS1A, compared to wtMR (fold against wtMR) was determined as 5.
